For assay [1], the target named is T1, Flag tagged recombinant DLL3 (Adipogen) (Homo sapiens (Human), UniProt Q9NYJ7 27-492).
T1 construct: Bought reagent; also called Flag-DLL3
T1 sequence: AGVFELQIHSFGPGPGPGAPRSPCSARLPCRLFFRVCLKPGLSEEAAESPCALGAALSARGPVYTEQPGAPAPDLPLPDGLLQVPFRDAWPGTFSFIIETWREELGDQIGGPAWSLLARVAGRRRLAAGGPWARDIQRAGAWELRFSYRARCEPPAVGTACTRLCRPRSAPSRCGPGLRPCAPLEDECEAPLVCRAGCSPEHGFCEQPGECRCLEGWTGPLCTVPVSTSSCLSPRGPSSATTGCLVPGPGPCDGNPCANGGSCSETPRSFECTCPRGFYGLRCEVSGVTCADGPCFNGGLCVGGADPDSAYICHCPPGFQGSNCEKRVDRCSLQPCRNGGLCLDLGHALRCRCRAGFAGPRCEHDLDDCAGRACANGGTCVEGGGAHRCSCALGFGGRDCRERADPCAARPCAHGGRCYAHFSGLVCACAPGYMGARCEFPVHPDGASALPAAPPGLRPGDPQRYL
In words: flow cytometry, percent of T cells that recognise recombinant DLL3, Donor 419.
Procedure: (§1) To determine the percentage of T cells that were successfully transduced with DLL3 CAR, T cells were first incubated with 1 ug/ml Flag tagged recombinant DLL3 (Adipogen) in PBS+1% BSA for 20 minutes at 4 C.

For assay [2], the target named is T1, Flag tagged recombinant DLL3 (Adipogen). The experiment in a line: flow cytometry, percent of T cells that recognise recombinant DLL3, Donor 503. (In general: In flow cytometry, cells or beads pass a laser one at a time.)
Procedure: as §1
Assay [3] addresses T2, cynomolgus monkey DLL3 extracellular domain (ECD) with C-terminal 8xHis tag and Avi tag (cynomolgus monkey, UniProt A0A2K5WSR1 27-490).
T2 construct: extracellular domain; Expressed in Expi293, purified by IMAC and SEC; also called cynoDLL3; cyno DLL3; not shown: Avi tag
T2 sequence: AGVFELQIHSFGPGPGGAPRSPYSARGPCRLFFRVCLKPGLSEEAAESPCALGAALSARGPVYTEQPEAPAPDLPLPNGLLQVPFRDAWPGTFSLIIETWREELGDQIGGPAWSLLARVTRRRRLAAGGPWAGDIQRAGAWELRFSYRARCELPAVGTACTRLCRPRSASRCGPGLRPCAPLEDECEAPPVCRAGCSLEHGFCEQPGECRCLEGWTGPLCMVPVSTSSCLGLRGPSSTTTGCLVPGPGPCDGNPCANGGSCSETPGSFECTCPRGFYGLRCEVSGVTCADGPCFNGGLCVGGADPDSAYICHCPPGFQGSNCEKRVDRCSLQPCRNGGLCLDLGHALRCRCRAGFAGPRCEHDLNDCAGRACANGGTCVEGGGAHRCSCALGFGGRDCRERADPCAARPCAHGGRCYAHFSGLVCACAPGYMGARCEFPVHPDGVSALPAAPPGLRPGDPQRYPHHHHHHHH
The experiment in a line: SPR (Biacore), 37 C; scFv-Fc captured on chip, cyno DLL3 ECD in solution; 1:1 Langmuir fit. For orientation: In SPR one partner is held on a chip, and binding of the other changes the refractive index at the surface.

The target in assay [4] is T3, human DLL3 extracellular domain (ECD) with C-terminal 8xHis tag and Avi tag (human, UniProt Q9NYJ7 27-492).
T3 construct: extracellular domain; Expressed in Expi293, purified by IMAC and SEC; also called huDLL3; not shown: Avi tag
T3 sequence: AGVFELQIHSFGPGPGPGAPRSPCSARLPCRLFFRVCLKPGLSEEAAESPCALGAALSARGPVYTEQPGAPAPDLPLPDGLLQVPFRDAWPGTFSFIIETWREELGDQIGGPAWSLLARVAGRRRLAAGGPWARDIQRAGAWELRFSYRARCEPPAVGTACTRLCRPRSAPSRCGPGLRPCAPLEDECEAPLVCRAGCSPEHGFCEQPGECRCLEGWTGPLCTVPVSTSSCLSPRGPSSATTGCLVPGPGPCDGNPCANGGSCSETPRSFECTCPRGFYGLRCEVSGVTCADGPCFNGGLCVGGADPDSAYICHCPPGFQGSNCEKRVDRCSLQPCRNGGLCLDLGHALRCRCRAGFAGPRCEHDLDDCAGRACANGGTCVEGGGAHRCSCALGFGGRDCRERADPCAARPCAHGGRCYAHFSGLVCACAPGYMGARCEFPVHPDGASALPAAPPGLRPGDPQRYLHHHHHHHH
The experiment in a line: SPR (Biacore), 37 C; scFv-Fc captured on chip, human DLL3 ECD in solution; 1:1 Langmuir fit.

Assay [5] concerns the target T4, mouse DLL3 extracellular domain (ECD) with C-terminal 8xHis tag and Avi tag (mouse, UniProt O88516 33-490).
T4 construct: extracellular domain; Expressed in Expi293, purified by IMAC and SEC; also called msDLL3; not shown: Avi tag
T4 sequence: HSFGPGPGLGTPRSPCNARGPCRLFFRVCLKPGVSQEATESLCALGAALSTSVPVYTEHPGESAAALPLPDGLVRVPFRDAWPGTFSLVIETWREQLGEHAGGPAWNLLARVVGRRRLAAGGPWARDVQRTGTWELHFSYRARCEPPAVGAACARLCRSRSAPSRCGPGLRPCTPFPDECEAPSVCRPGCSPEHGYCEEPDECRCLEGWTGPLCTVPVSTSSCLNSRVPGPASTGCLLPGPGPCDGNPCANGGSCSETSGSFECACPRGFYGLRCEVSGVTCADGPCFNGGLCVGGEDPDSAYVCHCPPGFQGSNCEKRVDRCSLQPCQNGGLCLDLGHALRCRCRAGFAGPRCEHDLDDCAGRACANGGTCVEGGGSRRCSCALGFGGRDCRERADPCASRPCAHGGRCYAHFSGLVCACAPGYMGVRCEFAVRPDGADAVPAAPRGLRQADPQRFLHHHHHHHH
In words: SPR (Biacore), 37 C; scFv-Fc captured on chip, mouse DLL3 ECD in solution; 1:1 Langmuir fit.

B1: 4E1 (other)
CAR: QVQLQQSGPGLVKPSQTLSLTCAISGDNVSTNSAAWNWIRQSPSRGLEWLGWTYYRSKWYNDYAVSLKSRININPDTSKNQFSLQLNSVTPEDTAVYYCARWVNRDVFDIWGQGTMVTVSSGGGGSGGGGSGGGGSGGGGSQSALTQPASVSGSPGQSITISCTGTSSDVGSYNLVSWYQQHPGKAPKLMIYEGSKRPSGVSNRFSGSKSGNTASLTISGLQAEDEADYYCCSYAGSSTWVFGGGTKLTVLTTTPAPRPPTPAPTIASQPLSLRPEACRPAAGGAVHTRGLDFACDIYIWAPLAGTCGVLLLSLVITKRGRKKLLYIFKQPFMRPVQTTQEEDGCSCRFPEEEEGGCELRVKFSRSADAPAYQQGQNQLYNELNLGRREEYDVLDKRRGRDPEMGGKPRRKNPQEGLYNELQKDKMAEAYSEIGMKGERRRGKGHDGLYQGLSTATKDTYDALHMQALPPR
notes: also called anti-DLL3 CAR with 4E1 scFv, on primary T cells
Take B1: the results for the Transduction efficiency in assay [1] and in assay [2] were 2.35% and 3.18%, respectively.

B2: 3B11 (other)
CAR: QVQLQQSGPGLVKPSQTLSLTCAISGDSVSSNSVVWNWIRQSPSRGLEWLGRTYYRSKWYDDYAVSVKSRITINPDTSKNQFSLQLNSVTPEDTAVYHCARGGIVGAPDAFDIWGQGTMVTVSSGGGGSGGGGSGGGGSGGGGSQSVLTQPPSASGTPGQRVTISCSGSSSNIGSDPVSWYQQFPGTAPKLLIYTNNQRPSGVPDRFSGSKSGTSASLAISGLQSEDEADYYCAAWDDSLNGHVFGTGTKVTVLTTTPAPRPPTPAPTIASQPLSLRPEACRPAAGGAVHTRGLDFACDIYIWAPLAGTCGVLLLSLVITKRGRKKLLYIFKQPFMRPVQTTQEEDGCSCRFPEEEEGGCELRVKFSRSADAPAYQQGQNQLYNELNLGRREEYDVLDKRRGRDPEMGGKPRRKNPQEGLYNELQKDKMAEAYSEIGMKGERRRGKGHDGLYQGLSTATKDTYDALHMQALPPR
notes: also called anti-DLL3 CAR with 3B11 scFv, on primary T cells
For B2, the Transduction efficiency came to 57.3% in assay [1] and 65.8% in assay [2].

B3: 10G1-K scFv-Fc fusion (Fc fusion, not shown: a dimerising Fc or GST)
scFv: EVQLLESGGGLVQPGGSLRLSCAASGFTFSSYAMNWVRQAPGKGLEWVSTISGSGGSTYYADSVKGRFTISRDNSKNTLYLQMNSLRAEDTAVFYCAIDPEYYDILTGGDYWGQGTLVTVSSGGGGSGGGGSGGGGSGGGGSDIQMTQSPSAMSASVGDRVTITCRASQGISNYLAWFQQKPGKVPKRLIYAASSLQSGVPSRFSGSGSGTEFTLTISSLQPEDFATYFCLQHDSFPLTFGGGTKVEIK
notes: scFv-Fc expressed in Expi293
As a reminder, the Kd is the concentration at which binding is half-saturated. As for B3, the Kd was determined as 28.8 nM in assay [3], 26.3 nM in assay [4] and 27.7 nM in assay [5].

B4: 4H8 scFv-Fc fusion (Fc fusion, not shown: a dimerising Fc or GST)
scFv: QVQLQQSGPGLVKPSQTLSLTCAISGDSVSSNSATWNWIRQSPSRGLEWLGRTYYRSKWYDDYAVSVKSRITINPDTSKNHLSLHLNSVTPEDTAVYYCAGGGLVGAPDGFDVWGQGTMVTVSSGGGGSGGGGSGGGGSGGGGSQSVLTQPPSASGTPGQRVTISCSGSSSNIGSDPVNWYQQLPGTAPKLLIYSNNQRPSGVPDRFSGSKSGTSASLAISGLQSEDEADYYCSAWDDSLNGYVFGTGTKVTVL
notes: scFv-Fc expressed in Expi293
For the molecule B4, the Kd in assay [3] is 27 nM; in assay [4] it was 23.3 nM; in assay [5], 18.6 nM.

B5: 26C8 scFv-Fc fusion (Fc fusion, not shown: a dimerising Fc or GST)
scFv: QVQLQESGPGLVKPSETLSLTCTVSDNSISNYYWSWIRQPPGKGLEWIAYIYYSGTTNYNPSLKSRVTISLDTSKNQFSLQLSSVTAADAAVYYCARVFHWGFAFDIWGQGTMVTVSSGGGGSGGGGSGGGGSGGGGSEIVLTQSPGTLSLSPGERATLSCRASQRVSNTYLAWYQQNPGQAPRLLIYGASSRATGIPDRFSGSGSGTDFTLTISRLEPEDFAVYYCQQYGTSPLTFGGGTKVEIK
notes: scFv-Fc expressed in Expi293
Regarding B5, the Kd came out at 4.51 nM in assay [3], 5.53 nM in assay [4] and 3.05 nM in assay [5].

B6: 2404.6H1 (other)
CAR: QVQLVESGGGVVQPGRSLRLSCAASGFTFSSYGMHWVRQTPGKGLEWVAVISYDGNSNYYADSVKGRFTISRDNSKNTLYLQMNSLRAEDTAVYYCARDGATVTSYYYYGMDVWGQGTTVTVSSGGGGSGGGGSGGGGSGGGGSEIVLTQSPGTLSLSPGERATLSCRASQSVSRTYLAWYHQKPGQAPRLLIYGASSRATGISDRFSGSGSGTDFTLTISRLEPEDFAVYYCQQYGTSPITFGQGTRLEIKTTTPAPRPPTPAPTIASQPLSLRPEACRPAAGGAVHTRGLDFACDIYIWAPLAGTCGVLLLSLVITKRGRKKLLYIFKQPFMRPVQTTQEEDGCSCRFPEEEEGGCELRVKFSRSADAPAYQQGQNQLYNELNLGRREEYDVLDKRRGRDPEMGGKPRRKNPQEGLYNELQKDKMAEAYSEIGMKGERRRGKGHDGLYQGLSTATKDTYDALHMQALPPR
notes: also called anti-DLL3 CAR with 2404.6H1 scFv, on primary T cells
On to B6, for which the Transduction efficiency in assay [1] stood at 6.01%; in assay [2] it was 6.41%.

B7: 5G2 (other)
CAR: QVQLQQSGPGLVKPSQTLSLTCAISGDSVSSNSAVWNWIRQSPSRGLEWLGWTYYRSKYYNDYAVSLKSRITINPDTSKNQFSLQLNSLTPEDTAVYYCTRGGIVGAPDGFDIWGQGTMVTVSSGGGGSGGGGSGGGGSGGGGSQSALTQPPSASGTPGQRVTISCSGSNSNIGSNPINWYQQLPGTAPKLLIYSNNQRPSGVPDRFSGSKSGTSASLAISGLQSEDEADYYCAAWDDSLNGHVFGTGTKVTVLTTTPAPRPPTPAPTIASQPLSLRPEACRPAAGGAVHTRGLDFACDIYIWAPLAGTCGVLLLSLVITKRGRKKLLYIFKQPFMRPVQTTQEEDGCSCRFPEEEEGGCELRVKFSRSADAPAYQQGQNQLYNELNLGRREEYDVLDKRRGRDPEMGGKPRRKNPQEGLYNELQKDKMAEAYSEIGMKGERRRGKGHDGLYQGLSTATKDTYDALHMQALPPR
notes: also called anti-DLL3 CAR with 5G2 scFv, on primary T cells
As to B7, the Transduction efficiency was 36.7% in assay [1] and 42.8% in assay [2].

B8: 10A2 (other)
CAR: QVQLQQSGPGLVKPSETLSLTCAISGDSVSSNSATWNWIRQSPSRGLEWLGRTYYRSEWYNDYAVSVKSRITINPDTSKNHLSLHLNSVTPEDTAVYYCAGGGIVGAPDGFDVWGQGTMVTVSSGGGGSGGGGSGGGGSGGGGSQSVLTQPPSASGTPGQRVTISCSGSSSNIGSDPVIWYQQLPRTAPKLLIYSNNQRPSGVPDRFSGSKSGTSASLAISGLQSEDEADYYCAAWDDSLNGYVFGTGTKVTVLTTTPAPRPPTPAPTIASQPLSLRPEACRPAAGGAVHTRGLDFACDIYIWAPLAGTCGVLLLSLVITKRGRKKLLYIFKQPFMRPVQTTQEEDGCSCRFPEEEEGGCELRVKFSRSADAPAYQQGQNQLYNELNLGRREEYDVLDKRRGRDPEMGGKPRRKNPQEGLYNELQKDKMAEAYSEIGMKGERRRGKGHDGLYQGLSTATKDTYDALHMQALPPR
notes: also called anti-DLL3 CAR with 10A2 scFv, on primary T cells
Turning to B8, the Transduction efficiency amounted to 58.5% in assay [1] and 67.6% in assay [2].
